# Fewer inactive variants are shown than the library holds.
# B1: TPR 5TU (parent)
# chain: GGAUCUUCUCGAUCUAACAAAAAAGACAAAUCUGCCACAAAGCUUGAGAGCAUCUUCGGAUGCAGAGGCGGCAGCCUUCGGUGGCGCGAUAGCGCCAACGUUCUCAACUAUGACACGCAAAACGCGUGCUCCGUUGAAUGGAGUUUAUCAUG
# Variants of: B1
# Assay: polymerase ribozyme fitness, log enrichment relative to wild type (log ratio); higher = more active; in vitro selection for triplet polymerase activity
# Procedure, shortened: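 Fitness compares each genotype's enrichment to that of the wild type on a logarithmic scale, averaging replicates with inverse-variance weights. The logarithm is base 2. Enrichment came from Illumina sequencing of input and output libraries after one triplicate round of in vitro selection, which included frozen incubation at −7 °C, of PCR-built, transcribed mutant libraries of each subunit of a heterodimeric triplet polymerase ribozyme. Only genotypes with ≥10 input reads and ≥1 read per output were kept.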
row,Variant,polymerase ribozyme fitness (log ratio)
1,U13C A21C A23C G92U A142G A147U,≤ -4.2
2,A12U A28C C57U G68A G92C G126U,≤ -4.2
3,A12G G48C U56A G70A G83U,≤ -4.2
4,A12G U56A U144A,0.103
5,A12U A37G C69G A122C G126A A150G,≤ -4.2
6,U13A C85U U135A,-1.44
7,U13A C18G A30G G65U A91G A115C C118U U144G,≤ -4.2
8,U13A C27A C54A U56A G65C G92C A97G U101G G140U,≤ -4.2
9,A12G G80A C118U A119C A120G G143U,-3.12
10,A12U C14U A21U A49G C75G C116U A121C U146G U151G,≤ -4.2
11,A12U U15C U56A G92A A150G,-1.16
12,A12U G81C G84A A115U,≤ -4.2
13,U13G A20C U55G U90G C95G C105A C116G G124A,≤ -4.2
14,A12U A41C G83C C118G G133U,≤ -4.2
15,A12U G46C C69U,-3.08
16,A12U A16G A30U C79G C95A U144A,≤ -4.2
17,U13G A28G U53A A64U G141U U145G G152A,≤ -4.2
18,U13A G34U A49C G140A A142U,≤ -4.2
19,U13C A19C A89U C95U U146G A150U,-2.94
20,U13C A22U A24U U53A A98U,-1.6
21,A12U A17U A28C C43G C103G,≤ -4.2

row,Variant,polymerase ribozyme fitness (log ratio)
1,U13C U78G C85A C116U,≤ -4.2
2,U13A C38U,-0.321
3,U13C C38U G86A G124C,-1.98
4,U13G A20U C57A C95A C96A U130C,≤ -4.2
5,U13A A28U C36U G81C,≤ -4.2
6,A12G U145A,1.33
7,A12U C85A C96A,-2.97
8,A12U U53A U56A A66C A113C,≤ -4.2
9,A12U C105G,-2.43
10,A12U G92A A98G C125G G128U,≤ -4.2
11,A12U A22U C27U A40G C69A U78A G94A A115C A119U G124A,≤ -4.2
12,U13G A19U A49U C54G A89G C93U U127C,≤ -4.2
13,A12U A20C G86U G100U U151A,≤ -4.2
14,A12U G50A C85A G88A A121G,≤ -4.2
15,A12G C87G G88U C96U C105A C108G C116U,≤ -4.2
16,U13G A21C G48U,-1.33
17,A12U U56A A115G,-2.11
18,A12U G84C,-2.67
19,A12U G84U,-1.97
20,A12U A20G U56A C75G A121G,≤ -4.2
21,A12G G83U G92U A142G,-2.93

row,Variant,polymerase ribozyme fitness (log ratio)
1,A12G U78C U139G,-1.31
2,A12G U31G C118A A120G G141C,-2.6
3,A12U A20U A21C C87G A142G,≤ -4.2
4,U13C C35A A91U C95A U104C C131G,≤ -4.2
5,A12G C116G,0.204
6,A12U C14A A24U U56A C85U C99U G141A,≤ -4.2
7,U13C A29U A52C G86C A107C U109A,≤ -4.2
8,U13A C18G,-0.831
9,A12G U13A A19C G92C C99U G124C U148G G152U,≤ -4.2
10,U13A A20U U77A,≤ -4.2
11,A12U G94A,-1.47
12,U13A U33A A52U A89G,≤ -4.2
13,A12U A16C C57G G81A U104G A115G,≤ -4.2
14,A12G U15C A37G U44A U56A C69U C87U,≤ -4.2
15,A12U U45A U55G A66G U78C G88U C95G A137U,≤ -4.2
16,U13C A19G U45G C93A A106U,-2.34
17,A12U A28U U44G C93A U102A,≤ -4.2
18,A12U A16U C51A G94A U109C A113G C116A U144A,≤ -4.2
19,A12U C87U A119U,-1.23
20,A12U C38U G83U,-0.788
21,U13A A20U A28C C93U G136C A137U,≤ -4.2

row,Variant,polymerase ribozyme fitness (log ratio)
1,A12U A19U C35A U61G C69U U78G G80C A97C G126U,≤ -4.2
2,A12G U13A U31A C57A G65A C85G,≤ -4.2
3,A12G G88A U109C A142C,-4.12
4,A12U U56A C93U A147G,-1.6
5,A12U U56G A89G C93A A113G,-3.89
6,A12U A49C U53A C85U C118G U151G,≤ -4.2
7,A12U A110G,-3.35
8,A12U C57G G65A,-3.18
9,A12U C63A U78G C95U,≤ -4.2
10,U13A G34U G94A U102G,≤ -4.2
11,U13C C27U A37G C54U A106G U109G C123G G124A,-3.57
12,U13A A22U U53A G62C A64U U90A A91C C103A A106G C108U G126C,≤ -4.2
13,A12U A21U A39C G92A U109G A137G,≤ -4.2
14,A12U U55A G59U A60G G94A,-0.00322
15,U13G A37U C43U A52C A73C G84C U109C G140A,≤ -4.2
16,U13C A49C A52U G71A A113U,≤ -4.2
17,A12U C14A C85G U145C,-3.7
18,A12U U31G A40C A49C A60G C93U,≤ -4.2
19,A12G G59C,0.244
20,U13A C85U A107U C125A G126C,≤ -4.2
21,A12U C116G,-0.634
